Laboratory results from publication PMC10447908, “Customizably designed multibodies neutralize SARS-CoV-2 in a variant-insensitive manner” (Frontiers in Immunology, 2023).

Molecular target: T1, SARS-CoV-2 Spike receptor binding domain, Wuhan (ancestral) variant (SARS-CoV-2, UniProt P0DTC2, biotinylated in vitro when needed)
T1 construct: also called Wuhan RBD; soluble (monomeric) RBD
Test: flow cytometry on cells; cell-surface binding inhibition: 36 nM RBD preincubated with 1 to 1088 nM of the molecule for 1 h at 37°C in PBS, 1% BSA, 2 mM EDTA, then 1x10^5 HEK-293T-hACE2 cells for 1 h on ice; RBD on cells revealed with Strep-Tactin-Dye649; blocker and RBD meet in solution
Conditions: both partners purified

B1: Binder C (VHH)
VHH: QVQLVESGGGLVQPGGSLRLSCAASGITLDYYAIGWFRQAPGKEREGVSRIRSSDGSTNYADSVKGRFTMSRDNAKNTVYLQMNSLKPEDTAVYYCAYGPLTKYGSSWYWPYEYDYWGQGTQVTVSS
notes: not shown: His6, N-terminal, cleaved; SUMO, N-terminal, cleaved
B1: binds.
